Test results published in patent publication US20250059278A1 (SICHUAN HUIYU PHARMACEUTICAL, published 2025).
Numbering of substitutions follows the chain as printed.

B1: Control antibody 1-3C6 (bispecific antibody, human IgG1, lambda)
heavy: not shown
light: QAVVTQESALTTSPGETVTLTCRSSTGAVTTSNYANWVQEKPDHLFTGLIGGTNKRAPGVPARFSGSLIGDKAALTITGAQTEDEAIYFCALWYSNLWVFGGGTKLTVLGQPKAAPSVTLFPPSSEELQANKATLVCLISDFYPGAVTVAWKADSSPVKAGVETTTPSKQSNNKYAASSYLSLTPEQWKSHRSYSCQVTHEGSTVEKTVAPTECS
B2: CD3 monoclonal antibody M22 (antibody, human IgG1, lambda, V domains shown)
VH: EVQLVESGGGLVQPGGSLRLSCAASGFTFNTYAMNWVRQAPGKGLEWVARIRSKYNNYATYYADSVKGRFTISRDDSKSILYLQMNSLKTEDTAMYYCVRHERFGNSYVSWFAYWGQGTLVTVSS
VL: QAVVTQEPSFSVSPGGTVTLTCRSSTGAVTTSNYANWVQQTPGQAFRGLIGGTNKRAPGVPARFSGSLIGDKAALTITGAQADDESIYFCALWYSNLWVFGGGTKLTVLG
notes: IgG: VH22 + IgG1 mutant CH, VL-1 + CL
B3: CD3 monoclonal antibody M23 (antibody, human IgG1, lambda, V domains shown)
VH: B2 VH with E102S, R103N, G105L
VL: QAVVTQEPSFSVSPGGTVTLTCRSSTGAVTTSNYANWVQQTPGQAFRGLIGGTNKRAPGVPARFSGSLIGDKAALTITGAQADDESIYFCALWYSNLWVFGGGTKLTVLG
notes: IgG: VH23 + IgG1 mutant CH, VL-1 + CL
B4: CD3 monoclonal antibody M24 (antibody, human IgG1, lambda, V domains shown)
VH: B2 VH with M95V, E102S, R103N, N106R
VL: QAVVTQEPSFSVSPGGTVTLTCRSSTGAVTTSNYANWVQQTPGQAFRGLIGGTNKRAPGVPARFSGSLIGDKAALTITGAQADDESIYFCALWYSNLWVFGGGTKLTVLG
notes: IgG: VH24 + IgG1 mutant CH, VL-1 + CL
B5: CD3 monoclonal antibody M25 (antibody, human IgG1, lambda, V domains shown)
VH: B2 VH with G68D, E102G, R103N, Y108R
VL: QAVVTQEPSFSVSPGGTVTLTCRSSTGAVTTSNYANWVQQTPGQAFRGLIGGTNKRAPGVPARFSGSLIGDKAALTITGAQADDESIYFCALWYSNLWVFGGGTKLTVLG
notes: IgG: VH25 + IgG1 mutant CH, VL-1 + CL
B6: CD3 monoclonal antibody M26 (antibody, human IgG1, lambda, V domains shown)
VH: B2 VH with G68D, S87N, E102G, R103N, Y108Q, A113Q
VL: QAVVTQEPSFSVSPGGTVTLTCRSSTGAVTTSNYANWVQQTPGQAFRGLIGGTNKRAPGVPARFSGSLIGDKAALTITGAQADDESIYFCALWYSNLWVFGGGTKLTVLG
notes: IgG: VH26 + IgG1 mutant CH, VL-1 + CL
B7: CD3 monoclonal antibody M27 (antibody, human IgG1, lambda, V domains shown)
VH: B2 VH with E102A, R103N, Y114S
VL: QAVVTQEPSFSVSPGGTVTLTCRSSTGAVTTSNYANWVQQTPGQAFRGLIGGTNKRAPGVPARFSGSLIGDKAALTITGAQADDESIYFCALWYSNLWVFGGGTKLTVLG
notes: IgG: VH27 + IgG1 mutant CH, VL-1 + CL
B8: CD3 monoclonal antibody M29 (antibody, human IgG1, lambda, V domains shown)
VH: B2 VH with E102G, R103N, G105P, N106M
VL: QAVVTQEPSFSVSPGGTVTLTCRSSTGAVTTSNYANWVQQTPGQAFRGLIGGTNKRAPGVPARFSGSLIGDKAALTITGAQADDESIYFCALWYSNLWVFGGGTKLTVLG
notes: IgG: VH29 + IgG1 mutant CH, VL-1 + CL
B9: CD3 monoclonal antibody M30 (antibody, human IgG1, lambda, V domains shown)
VH: B2 VH with G68D, E102S, R103N, S107G
VL: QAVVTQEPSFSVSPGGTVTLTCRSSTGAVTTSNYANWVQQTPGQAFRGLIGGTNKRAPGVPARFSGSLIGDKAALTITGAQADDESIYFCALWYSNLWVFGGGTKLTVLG
notes: IgG: VH30 + IgG1 mutant CH, VL-1 + CL
B10: CD3 monoclonal antibody M31 (antibody, human IgG1, lambda, V domains shown)
VH: B2 VH with S87N, M95V, E102S, R103N, A113E
VL: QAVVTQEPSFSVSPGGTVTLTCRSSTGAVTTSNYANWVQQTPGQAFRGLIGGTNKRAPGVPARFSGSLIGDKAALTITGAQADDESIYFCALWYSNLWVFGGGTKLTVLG
notes: IgG: VH31 + IgG1 mutant CH, VL-1 + CL
B11: CD3 monoclonal antibody M32 (antibody, human IgG1, lambda, V domains shown)
VH: B2 VH with I80S, M95V, E102S, R103N, Y108R
VL: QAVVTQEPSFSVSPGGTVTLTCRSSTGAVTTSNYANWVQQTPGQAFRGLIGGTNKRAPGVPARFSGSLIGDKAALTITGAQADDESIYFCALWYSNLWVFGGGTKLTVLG
notes: IgG: VH32 + IgG1 mutant CH, VL-1 + CL
B12: CD3 monoclonal antibody M33 (antibody, human IgG1, lambda, V domains shown)
VH: B2 VH with I80S, M95V, E102G, R103N, S107N, Y114S
VL: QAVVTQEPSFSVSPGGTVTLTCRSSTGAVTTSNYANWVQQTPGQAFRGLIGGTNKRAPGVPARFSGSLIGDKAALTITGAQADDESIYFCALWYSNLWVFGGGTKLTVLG
notes: IgG: VH33 + IgG1 mutant CH, VL-1 + CL
B13: CD3 monoclonal antibody M34 (antibody, human IgG1, lambda, V domains shown)
VH: B2 VH with I80S, S87N, M95V, E102G, R103N, G105K, N106Q
VL: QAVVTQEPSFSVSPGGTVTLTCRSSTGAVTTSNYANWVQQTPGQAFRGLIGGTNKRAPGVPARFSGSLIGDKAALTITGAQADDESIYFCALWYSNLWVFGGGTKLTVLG
notes: IgG: VH34 + IgG1 mutant CH, VL-1 + CL
B14: CD3 monoclonal antibody M35 (antibody, human IgG1, lambda, V domains shown)
VH: B2 VH with G68D, I80S, S87N, M95V, E102S, R103N, F112W
VL: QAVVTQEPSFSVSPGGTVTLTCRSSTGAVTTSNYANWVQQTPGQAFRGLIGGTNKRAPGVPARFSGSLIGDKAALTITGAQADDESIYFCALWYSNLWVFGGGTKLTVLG
notes: IgG: VH35 + IgG1 mutant CH, VL-1 + CL
B15: CD3 monoclonal antibody M36 (antibody, human IgG1, lambda, V domains shown)
VH: B2 VH with G68D, I80S, E102S, R103N, G105P
VL: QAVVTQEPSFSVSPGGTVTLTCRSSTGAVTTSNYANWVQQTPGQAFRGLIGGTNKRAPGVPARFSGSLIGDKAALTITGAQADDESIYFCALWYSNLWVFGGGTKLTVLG
notes: IgG: VH36 + IgG1 mutant CH, VL-1 + CL
B16: CD3 monoclonal antibody M37 (antibody, human IgG1, lambda, V domains shown)
VH: B2 VH with G68D, S87N, E102A, R103N, G105S
VL: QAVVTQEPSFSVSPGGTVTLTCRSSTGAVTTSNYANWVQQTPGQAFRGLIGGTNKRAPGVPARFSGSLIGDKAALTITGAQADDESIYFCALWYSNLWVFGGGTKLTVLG
notes: IgG: VH37 + IgG1 mutant CH, VL-1 + CL
B17: CD3 monoclonal antibody M38 (antibody, human IgG1, lambda, V domains shown)
VH: B2 VH with G68D, I80S, S87N, M95V, E102G, R103N, G105L, A113Q
VL: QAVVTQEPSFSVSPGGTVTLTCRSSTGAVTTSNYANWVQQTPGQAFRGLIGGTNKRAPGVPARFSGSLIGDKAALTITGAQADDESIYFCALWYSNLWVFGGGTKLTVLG
notes: IgG: VH38 + IgG1 mutant CH, VL-1 + CL
B18: CD3 monoclonal antibody M39 (antibody, human IgG1, lambda, V domains shown)
VH: B2 VH with G68D, I80S, S87N, E102Q, R103N, A113Q
VL: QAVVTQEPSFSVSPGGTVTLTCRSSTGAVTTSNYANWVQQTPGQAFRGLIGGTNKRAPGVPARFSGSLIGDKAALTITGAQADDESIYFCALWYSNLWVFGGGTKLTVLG
notes: IgG: VH39 + IgG1 mutant CH, VL-1 + CL
B19: CD3 monoclonal antibody M40 (antibody, human IgG1, lambda, V domains shown)
VH: B2 VH with G68D, I80S, S87N, H101A, E102G, R103N, A113Q
VL: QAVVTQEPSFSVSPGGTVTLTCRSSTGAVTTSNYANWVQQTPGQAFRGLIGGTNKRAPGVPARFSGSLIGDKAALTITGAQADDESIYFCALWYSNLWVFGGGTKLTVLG
notes: IgG: VH40 + IgG1 mutant CH, VL-1 + CL
B20: CD3 monoclonal antibody M41 (antibody, human IgG1, lambda, V domains shown)
VH: B2 VH with I80S, S87N, E102S, R103N, G105Q
VL: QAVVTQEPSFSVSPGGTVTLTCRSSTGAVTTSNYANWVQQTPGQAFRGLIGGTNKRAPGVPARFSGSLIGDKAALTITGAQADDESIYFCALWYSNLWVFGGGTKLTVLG
notes: IgG: VH41 + IgG1 mutant CH, VL-1 + CL
B21: CD3 monoclonal antibody M42 (antibody, human IgG1, lambda, V domains shown)
VH: B2 VH with I80S, S87N, E102G, R103N, G105Q, A113Q
VL: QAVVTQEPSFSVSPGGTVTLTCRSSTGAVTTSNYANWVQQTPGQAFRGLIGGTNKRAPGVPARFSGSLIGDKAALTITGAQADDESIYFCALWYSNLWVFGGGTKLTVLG
notes: IgG: VH42 + IgG1 mutant CH, VL-1 + CL
B22: CD3 monoclonal antibody M43 (antibody, human IgG1, lambda, V domains shown)
VH: B2 VH with G68D, H101P, E102G, R103N, G105P, Y114L
VL: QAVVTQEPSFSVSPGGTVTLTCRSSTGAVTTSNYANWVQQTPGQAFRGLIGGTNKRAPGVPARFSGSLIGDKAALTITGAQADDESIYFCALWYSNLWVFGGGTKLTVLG
notes: IgG: VH43 + IgG1 mutant CH, VL-1 + CL
B23: CD3 monoclonal antibody M44 (antibody, human IgG1, lambda, V domains shown)
VH: B2 VH with G68D, I80S, S87N, E102G, R103N, G105Q, V109I
VL: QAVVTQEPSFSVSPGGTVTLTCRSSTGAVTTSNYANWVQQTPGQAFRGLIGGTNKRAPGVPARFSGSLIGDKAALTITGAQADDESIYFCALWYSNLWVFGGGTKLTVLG
notes: IgG: VH44 + IgG1 mutant CH, VL-1 + CL
B24: CD3 monoclonal antibody M45 (antibody, human IgG1, lambda, V domains shown)
VH: B2 VH with G68D, I80S, S87N, E102S, R103N, A113Q
VL: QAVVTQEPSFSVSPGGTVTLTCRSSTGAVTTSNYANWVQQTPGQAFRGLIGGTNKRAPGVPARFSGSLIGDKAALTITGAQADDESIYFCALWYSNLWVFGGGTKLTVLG
notes: IgG: VH45 + IgG1 mutant CH, VL-1 + CL
B25: CD3 monoclonal antibody M46 (antibody, human IgG1, lambda, V domains shown)
VH: B2 VH with G68D, E102A, R103N, Y114S
VL: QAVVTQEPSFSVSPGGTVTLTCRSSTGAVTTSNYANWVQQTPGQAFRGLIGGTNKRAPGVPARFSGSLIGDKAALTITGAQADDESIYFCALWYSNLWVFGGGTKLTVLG
notes: IgG: VH46 + IgG1 mutant CH, VL-1 + CL
B26: Positive control bispecific antibody OKT3-3C6 (bispecific antibody, human IgG1, lambda)
heavy: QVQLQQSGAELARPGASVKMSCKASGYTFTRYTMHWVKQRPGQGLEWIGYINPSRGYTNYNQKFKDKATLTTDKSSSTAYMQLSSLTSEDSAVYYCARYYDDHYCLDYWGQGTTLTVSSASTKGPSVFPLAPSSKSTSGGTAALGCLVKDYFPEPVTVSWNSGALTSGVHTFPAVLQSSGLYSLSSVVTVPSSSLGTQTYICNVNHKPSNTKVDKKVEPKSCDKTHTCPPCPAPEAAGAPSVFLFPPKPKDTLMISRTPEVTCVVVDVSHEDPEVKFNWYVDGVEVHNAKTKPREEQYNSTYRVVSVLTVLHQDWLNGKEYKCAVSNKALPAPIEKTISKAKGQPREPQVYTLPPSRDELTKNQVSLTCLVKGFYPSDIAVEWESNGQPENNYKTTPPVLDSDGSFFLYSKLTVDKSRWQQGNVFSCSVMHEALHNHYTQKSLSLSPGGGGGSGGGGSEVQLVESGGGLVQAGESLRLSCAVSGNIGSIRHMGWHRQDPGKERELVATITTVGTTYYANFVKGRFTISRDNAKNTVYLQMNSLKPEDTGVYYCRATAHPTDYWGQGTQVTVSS
light: QIVLTQSPAIMSASPGEKVTMTCSASSSVSYMNWYQQKSGTSPKRWIYDTSKLASGVPAHFRGSGSGTSYSLTISGMEAEDAATYYCQQWSSNPFTFGSGTKLEIGQPKAAPSVTLFPPSSEELQANKATLVCLISDFYPGAVTVAWKADSSPVKAGVETTTPSKQSNNKYAASSYLSLTPEQWKSHRSYSCQVTHEGSTVEKTVAPTECS

target: T1, Human CD3 on Jurkat cells (human, UniProt P07766 23-207; P09693 23-182; P04234 22-171); assay: cell-based or functional assay

Binder	EC50 (nM), activation of Jurkat-TIGIT-luc cells with MC38/MSLN tumor cells [nM]	EC50 (nM), activation of T cell activation signaling pathway, Jurkat-TIGIT-luc cells without tumor cells [nM]
B1	0.036	0.21

target: T2, Human CD3εγ recombinant antigen (acrobiosystems, Cat. No. CDG-H52W5) (human, UniProt P07766 23-126; P09693 23-116); assay: SPR chip (Carterra), antibody captured, antigen in flow;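 note: antibodies captured through anti-human IgG Fc at roughly 1000 RU, kinetic constants fitted with a 1:1 binding model in Carterra analysis software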
T2 construct: Bought recombinant protein
Experimental: Antibodies at three concentrations of 4, 2, and 1 μg/mL were immobilized on the HC200M chip containing anti-human IgG Fc secondary antibody (Xantec, Cat. No.: HC200M), and the antibody binding amount was controlled to approximately 1000RU. […] The kinetic constants were obtained by fitting using the 1:1 binding model of Kinetics software from Carterra.

Binder	Kd [nM]	koff [s⁻¹]	kon [M⁻¹ s⁻¹]
B2	3.33	0.00222	666000
B3	1.57	0.00549	3.5e+06
B4	1.06	0.00358	3.38e+06
B5	5.27	0.0048	910000
B6	3.51	0.00543	1.55e+06
B7	2.44	0.0028	1.15e+06
B8	5.88	0.00776	1.32e+06
B9	2.93	0.00234	798000
B10	0.43	0.00126	2.92e+06
B11	4.37	0.0133	3.05e+06
B12	19.3	0.0054	280000
B13	7.22	0.0034	471000
B14	0.842	0.00283	3.36e+06
B15	1.69	0.0109	6.46e+06
B16	5.31	0.0043	810000
B17	2.33	0.00268	1.15e+06
B18	29.7	0.0305	1.02e+06
B19	1.28	0.00055	431000
B20	1.52	0.00513	3.38e+06
B21	1.15	0.00137	1.19e+06
B22	13.3	0.0016	120000
B23	3.33	0.00334	1e+06
B24	1.87	0.00344	1.85e+06
B25	2.05	0.00205	999000

target: T1, Human CD3 on Jurkat cells; assay: flow cytometry on Jurkat cells

Binder	EC50 [nM]
B1	0.222
B26	0.0736

target: T3, Monkey CD3 on cynomolgus HSC-F cells (cynomolgus monkey, UniProt Q95LI5 22-198; Q95LI7 23-181; Q95LI8 22-171); assay: flow cytometry on HSC-F cells
T3 construct: whole, on cells; also called Monkey CD3-expressing cynomolgus HSC-F cells; cynomolgus monkey CD3-expressing HSC-F cells

Binder	EC50 [nM]	binding result
B1	0.28	–
B26	–	no binding (tested: 2 µg/ml starting concentration)

target: T3, Monkey CD3 on cynomolgus HSC-F cells; assay: flow cytometry on HSC-F cells; remark: another data set of the same source

Binder	EC50 [nM]
B2	2.31
B3	0.164
B4	0.12
B5	0.111
B6	0.223
B7	0.165
B8	0.272
B9	0.347
B10	0.154
B11	0.0667
B12	1.55
B13	0.266
B14	0.207
B15	0.109
B16	0.398
B17	0.161
B18	0.498
B19	0.407
B20	0.13
B21	0.143
B22	8.24
B23	0.141
B24	0.156
B25	0.148

target: T1, Human CD3 on Jurkat cells; assay: flow cytometry on Jurkat cells; remark: another data set of the same source

Binder	EC50 [nM]
B2	2.55
B3	0.186
B4	1.32
B5	0.0954
B6	0.235
B7	0.403
B8	0.412
B9	0.302
B10	1.56
B11	0.188
B12	4.92
B13	2.58
B14	0.792
B15	0.198
B16	0.211
B17	0.176
B18	0.759
B19	3.41
B20	0.751
B21	0.431
B22	10.2
B23	1.61
B24	0.415
B25	0.338
